The text below walks through data of patent US20200002710A1, “SYSTEMS AND METHODS FOR CONTROL OF GENE EXPRESSION” (TRUSTEES OF BOSTON UNIVERSITY, published 2020).

Broadly, the EC50 is the concentration that produces a half-maximal response. One may read the Kd as the constant that tells how readily two partners part at equilibrium.

The test system of data set [1] is 43-8 low affinity synTF + 3x syntrophin PDZ clamp (artificial). Kind of data set: FP. Conditions: nH 2.55; synTF titration with 3-PDZ clamp.
The target of data set [2] is T1, 42-10 (ZF2) low affinity synTF (artificial, R-to-A backbone (low affinity allele, already in ref)).
T1 chain: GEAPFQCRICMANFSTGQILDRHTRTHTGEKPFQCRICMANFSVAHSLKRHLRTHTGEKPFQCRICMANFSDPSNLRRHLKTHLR
Kind of data set: FP; fluorescence anisotropy competition; Zn2+, 25 C. Conditions: tags: N-terminal MBP; C-terminal GS linker + syntrophin ligand S5 (VKESLV). Here is the method: (§1) Sequences for both sets of DBM affinity variants are listed on the right. Residues mutated from the WT sequence are indicated by bold type.
(§2) All assays were conducted in 20 mM Tris, pH 7.5, 100 mM […], 50 μM ZnCl2 buffer at 25° C. Proteins, probes, and competitor oligos were added to a final volume of 300 μL. Probes were used at 10 nM in all experiments. For complex assembly experiments (FIG. 1C), indicated concentrations of MBP-ZF₄₃₋₈ harboring a VSKESLV* ligand (SEQ ID NO: 120) (see e.g., FIG. 5A-FIG. 5B, FIG. 7A-FIG. 7B) were titrated against 5 μM concentrations of clamp. Mixtures were allowed to equilibrate at 25° C. for 10 min in Costar black 96-well plates prior to reading. Fluorescence anisotropy (FA) measurements were made at 494 nm using a SpectraMax M5 (Molecular Devices) fluorescence plate reader. For all measurements, anisotropy (r) was calculated using the following equation, wherein I_{∥} and I_{⊥} are parallel and perpendicular fluorescence, respectively:
(§3) TF-DBM binding constants were measured in vitro by fluorescence anisotropy (FA). Recombinant proteins were purified and DBM oligos prepared as described herein. […] Affinities for the interaction were measured as a function of the increase in fluorescence anisotropy resulting from binding of the fusion to a fluorescently labeled (FITC) oligo probe (data not shown). Oligo probe binding to ZF affinity variants was measured. MBP-ZF was titrated against 10 nM oligo probe. […] Kd values were extracted by fitting data to a quadratic binding equation (data not shown). Competition binding experiments were performed to measure binding constants for DBM affinity variants.

Data set [3] addresses T2, 42-10 (ZF2) high affinity synTF (artificial).
T2 chain: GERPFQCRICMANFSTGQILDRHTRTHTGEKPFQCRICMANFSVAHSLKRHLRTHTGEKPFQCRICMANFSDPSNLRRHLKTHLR
The experiment in a line: FP; fluorescence anisotropy competition; 20 mM Tris pH 7.5, 100 mM NaCl, 50 uM ZnCl2, 25 C. Conditions: tags: N-terminal MBP; C-terminal GS linker + syntrophin ligand S5 (VKESLV). On the procedure:
as §1, §2
TF-DBM binding constants were measured in vitro by fluorescence anisotropy (FA). Recombinant proteins were purified and DBM oligos prepared as described herein. […] Affinities for the interaction were measured as a function of the increase in fluorescence anisotropy resulting from binding of the fusion to a fluorescently labeled (FITC) oligo probe (data not shown). Oligo probe binding to ZF affinity variants was measured. […]
In general terms: In fluorescence polarisation assays a small probe gives low polarisation when free and higher when bound to something large.

The target of data set [4] is T3, MBP-syn. (MBP fusion of the syntrophin PDZ domain) (UniProt Q28626 83-177).
T3 chain: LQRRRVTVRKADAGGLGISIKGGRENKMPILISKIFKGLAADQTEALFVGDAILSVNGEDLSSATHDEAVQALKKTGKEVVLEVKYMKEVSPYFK
Kind of data set: thermodynamic model fit; model-fitted.

The target in data set [5] is T4, MBP-syn. (MBP fusion of the syntrophin PDZ domain) (Oryctolagus cuniculus (Rabbit), UniProt Q28626 83-177).
T4 construct: Used as an MBP fusion in the PDZ-ligand anisotropy assays; also called MBP-PDZ; pCB378
T4 sequence: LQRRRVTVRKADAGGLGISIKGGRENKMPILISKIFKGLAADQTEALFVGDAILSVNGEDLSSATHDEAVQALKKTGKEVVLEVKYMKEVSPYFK
Kind of data set: fluorescence anisotropy competition; 43-8 synTF-ligand fusion titrated against MBP-syntrophin PDZ and FITC-VKESLV probe. On the procedure: (§4) Probe concentration was assessed by measuring Abs490. Competitor peptides were purified as MBP-ZF43-8 fusions (see e.g., FIG. 5A-FIG. 5B, FIG. 7A-FIG. 7B).
as §2
(§5) PDZ-ligand binding constants were measured in vitro by fluorescence anisotropy. Recombinant proteins were purified as described herein. […] Peptide probe binding to PDZ domain was measured. […] Kₐ values were extracted by fitting data to a quadratic binding equation (data not shown). Competition binding experiments were conducted to measure binding constants for ligand affinity variants. […] accompanying displacement of the probe by the competitor was measured, and competitor ligand Kd values were extracted by fitting data (converted to fraction probe bound) to a cubic equation describing competitive binding (see e.g., FIG. 7A).

The target of data set [6] is T5, MBP-erb. (MBP fusion of the erbin PDZ domain) (Mus musculus (Mouse), UniProt Q80TH2 1304-1387, limits assumed).
T5 construct: also called MBP-PDZ; pCB425
T5 chain: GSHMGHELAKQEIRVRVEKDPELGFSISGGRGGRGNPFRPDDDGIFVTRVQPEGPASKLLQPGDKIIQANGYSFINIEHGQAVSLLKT
Kind of data set: fluorescence anisotropy competition; 43-8 synTF-ligand fusion titrated against MBP-erbin PDZ and FITC peptide probe. Here is the method: as §4, §2, §5

For data set [7], the target named is T5, MBP-erb. (MBP fusion of the erbin PDZ …). Kind of data set: fluorescence anisotropy competition (nb indicates no binding). On the procedure: as §4, §2, §5
For data set [8], the target named is T3, MBP-syn. (MBP fusion of the syntrophin …). The experiment in a line: fluorescence anisotropy competition; experimentally-measured.
The target of data set [9] is T4, MBP-syn. (MBP fusion of the syntrophin …). The experiment in a line: fluorescence anisotropy competition (nb indicates no binding). Here is the method: as §4, §2, §5
Data set [10] concerns the target T6, 43-8 (ZF1) low affinity synTF (artificial, R-to-A backbone (low affinity allele, already in ref)).
T6 chain: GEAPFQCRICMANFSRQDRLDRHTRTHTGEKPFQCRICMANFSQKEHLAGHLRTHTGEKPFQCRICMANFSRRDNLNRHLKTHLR
The experiment in a line: FP; no clamp; nH 1.07. Conditions: tags: N-terminal MBP; C-terminal GS linker + syntrophin ligand S5 (VKESLV); label: fluorescein on bottom-strand thymidine. On the procedure:
as §2, with “respectively: […]” for “respectively:”

The target in data set [11] is T7, 43-8 (ZF1) high affinity synTF (artificial).
T7 chain: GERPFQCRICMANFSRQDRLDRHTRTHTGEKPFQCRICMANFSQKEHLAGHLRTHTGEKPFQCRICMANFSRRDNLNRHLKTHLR
The experiment in a line: FP; fluorescence anisotropy competition; Zn2+, 25 C. As to conditions: tags: N-terminal MBP; C-terminal GS linker + syntrophin ligand S5 (VKESLV). Here is the method:
as §1, §2, §3

The target of data set [12] is T6, 43-8 (ZF1) low affinity synTF. Described as above. Conditions: tags: N-terminal MBP; C-terminal GS linker + syntrophin ligand S5 (VKESLV). On the procedure: as §1, §2, §3

In the case of “GAATTCGTCCTCACTCTTCGGTCCTCACTCTTCGGTCCTCACTCTGGATCC (double strand) [43-8 nc=3 probe]”, in data set [1], the EC50 was found to be 5.1 nM.

B1: 42-10 DBM5 (dsDNA)
DNA 1: AGACGCTACTC
DNA 2: GAGTAGCGTCT
B1: in [2], the Kd was found to be 95 nM.

B2: 42-10 DBM2 (dsDNA)
DNA 1: TGACGCTGCTT
DNA 2: AAGCAGCGTCA
As to B2, the Kd in [2] is 5.2 nM; in data set [3] it was 0.94 nM.

B3: MBP-43-8(low)-syn. lig. (S4) (other, not shown: large carriers)
chain: GEAPFQCRICMANFSRQDRLDRHTRTHTGEKPFQCRICMANFSQKEHLAGHLRTHTGEKPFQCRICMANFSRRDNLNRHLKTHLRGSGSGIRETIV
notes: also called IRETIV; pCB384
For the molecule B3, the results for the Kd in data set [4], in data set [5] and in [6] were 400 nM, 880 nM and 3460 nM, respectively.

B4: 43-8 synTF with appended erbin ligand E3 (PVDSWV) (other, not shown: large carriers)
chain: GEAPFQCRICMANFSRQDRLDRHTRTHTGEKPFQCRICMANFSQKEHLAGHLRTHTGEKPFQCRICMANFSRRDNLNRHLKTHLRGSGSGPVDSWV
With B4, the Kd worked out at 1570 nM in data set [5] and 420 nM in data set [6].

B5: MBP-43-8(low)-syn. lig. (S2) (other, not shown: large carriers)
chain: GEAPFQCRICMANFSRQDRLDRHTRTHTGEKPFQCRICMANFSQKEHLAGHLRTHTGEKPFQCRICMANFSRRDNLNRHLKTHLRGSGSGIRETIL
notes: also called IRETIL; pCB381
Molecule B5 registered a Kd in [5] of 180 nM. The binding result in data set [7] was “no binding”.

B6: MBP-43-8(low)-syn. lig.(no bind) (other, not shown: large carriers; small tags and cut ends)
chain: GEAPFQCRICMANFSRQDRLDRHTRTHTGEKPFQCRICMANFSQKEHLAGHLRTHTGEKPFQCRICMANFSRRDNLNRHLKTHLRGSGSGVKEAAA
notes: also called VKEAAA; nb
As to B6, the binding result in data set [7] is given as “no binding”.

B7: MBP-43-8(low)-syn. lig. (S6) (other, not shown: large carriers)
chain: GEAPFQCRICMANFSRQDRLDRHTRTHTGEKPFQCRICMANFSQKEHLAGHLRTHTGEKPFQCRICMANFSRRDNLNRHLKTHLRGSGSGVKEALV
notes: also called VKEALV; pCB386
As for B7, the values for the Kd in data set [5] and in data set [8] were 27300 nM and 20300 nM, respectively. In addition, the binding result in [7] is given as “no binding”.

B8: 43-8 synTF with appended erbin ligand E1 (WLVTWV) (other, not shown: large carriers)
chain: GEAPFQCRICMANFSRQDRLDRHTRTHTGEKPFQCRICMANFSQKEHLAGHLRTHTGEKPFQCRICMANFSRRDNLNRHLKTHLRGSGSGWLVTWV
B8 returned a Kd in [6] of 100 nM. Besides, in data set [9], the binding result is “no binding”.

B9: MBP-43-8(low)-syn. lig. (S5) (other, not shown: large carriers)
chain: GEAPFQCRICMANFSRQDRLDRHTRTHTGEKPFQCRICMANFSQKEHLAGHLRTHTGEKPFQCRICMANFSRRDNLNRHLKTHLRGSGSGVKESLV
notes: also called VKESLV; pCB385
With B9, the Kd in [4] came to 2050 nM; in [5] it was 1970 nM; in data set [6], 5710 nM.

B10: MBP-43-8(low)-syn. lig. (S1) (other, not shown: large carriers)
chain: GEAPFQCRICMANFSRQDRLDRHTRTHTGEKPFQCRICMANFSQKEHLAGHLRTHTGEKPFQCRICMANFSRRDNLNRHLKTHLRGSGSGIRETII
notes: also called IRETII; pCB380
Consider B10, for which the affinity in [5], expressed as Kd, was 62 nM. Moreover, the binding result in data set [7] is on record as “no binding”.

B11: 43-8 synTF with appended erbin ligand E2 (WLKTWV) (other, not shown: large carriers)
chain: GEAPFQCRICMANFSRQDRLDRHTRTHTGEKPFQCRICMANFSQKEHLAGHLRTHTGEKPFQCRICMANFSRRDNLNRHLKTHLRGSGSGWLKTWV
For B11, binding in data set [6] was characterised by a dissociation constant (Kd) of 330 nM. Also, in data set [9], the binding result is recorded as “no binding”.

B12: MBP-43-8(low)-syn. lig. (S3) (other, not shown: large carriers)
chain: GEAPFQCRICMANFSRQDRLDRHTRTHTGEKPFQCRICMANFSQKEHLAGHLRTHTGEKPFQCRICMANFSRRDNLNRHLKTHLRGSGSGIRWTIV
notes: also called IRWTIV; pCB382
In the case of B12, the Kd in [5] turned out to be 490 nM; in [6], 1730 nM.

B13: MBP-43-8(low)-syn. lig. (S7) (other, not shown: large carriers)
chain: GEAPFQCRICMANFSRQDRLDRHTRTHTGEKPFQCRICMANFSQKEHLAGHLRTHTGEKPFQCRICMANFSRRDNLNRHLKTHLRGSGSGHLETFF
notes: also called HLETFF; pCB387
B13 returned a Kd in [5] of 43200 nM. Moreover, the binding result in [7] is “no binding”.

B14: 42-10 DBM6 (dsDNA)
DNA 1: AGACGCTGCTA
DNA 2: TAGCAGCGTCT
Take B14: the Kd in data set [2] came out at 218 nM.

B15: 43-8 nc=2 probe (dsDNA)
DNA 1: GAATTCGTCCTCACTCTTCGGTCCTCACTCTGGATCC
DNA 2: GGATCCAGAGTGAGGACCGAAGAGTGAGGACGAATTC
For the molecule B15, the EC50 in [10] was determined as 210 nM.

B16: 42-10 DBM7 (dsDNA)
DNA 1: AGACTCTGCTC
DNA 2: GAGCAGAGTCT
Regarding B16, in data set [2], the Kd worked out at 415 nM.

B17: 43-8 DBM2 (dsDNA)
DNA 1: ACAGTGAGGAC
DNA 2: GTCCTCACTGT
For B17, the figures for the Kd in data set [11] and in data set [12] were 30 nM and 143 nM, respectively.

B18: 42-10 DBM4 (dsDNA)
DNA 1: ACACGCTGCTC
DNA 2: GAGCAGCGTGT
Take B18: in data set [2], the Kd came to 67 nM.

B19: 43-8 DBM3 (dsDNA)
DNA 1: ATAGTGAGGAC
DNA 2: GTCCTCACTAT
As for B19, the Kd in data set [11] amounted to 42 nM; in [12], 224 nM.

B20: 42-10 DBM3 (dsDNA)
DNA 1: AGACGGTGCTC
DNA 2: GAGCACCGTCT
As to B20, the Kd in [2] came to 32 nM.
